US20240124607A1 (Merck Sharp & Dohme, published 2024)
Changes are numbered by the printed parent chain. Each block holds one binder with its values, some of them ahead of it.

Key:
human CEACAM5 on cells = biological target: T1, human CEACAM5 on cells (human, UniProt P06731 35-685); test: cell-based or functional assay
T1 sequence: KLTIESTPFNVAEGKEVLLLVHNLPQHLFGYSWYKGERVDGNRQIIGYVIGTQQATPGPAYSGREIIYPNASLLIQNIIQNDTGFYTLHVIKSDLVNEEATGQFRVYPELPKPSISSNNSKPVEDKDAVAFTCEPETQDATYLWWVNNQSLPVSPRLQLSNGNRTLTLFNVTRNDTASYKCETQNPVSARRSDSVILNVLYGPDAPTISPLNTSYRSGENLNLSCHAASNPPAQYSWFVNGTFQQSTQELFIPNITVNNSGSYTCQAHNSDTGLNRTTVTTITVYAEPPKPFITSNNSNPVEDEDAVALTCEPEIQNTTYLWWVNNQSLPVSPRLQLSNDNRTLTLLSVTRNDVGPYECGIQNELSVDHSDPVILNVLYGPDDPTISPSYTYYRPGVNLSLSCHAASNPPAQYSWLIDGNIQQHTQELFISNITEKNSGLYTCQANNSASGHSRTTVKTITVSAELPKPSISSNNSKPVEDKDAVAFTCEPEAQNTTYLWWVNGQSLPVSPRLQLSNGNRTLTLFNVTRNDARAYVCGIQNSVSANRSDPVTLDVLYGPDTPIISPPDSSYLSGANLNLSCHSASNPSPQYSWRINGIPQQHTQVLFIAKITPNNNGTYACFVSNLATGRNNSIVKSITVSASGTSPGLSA

CEACAM5 N-A1-B1-His [1] = biological target: T2, CEACAM5 N-A1-B1-His (human, UniProt P06731 35-322, limits assumed); test: SPR, Fab capt, 25C
T2 sequence: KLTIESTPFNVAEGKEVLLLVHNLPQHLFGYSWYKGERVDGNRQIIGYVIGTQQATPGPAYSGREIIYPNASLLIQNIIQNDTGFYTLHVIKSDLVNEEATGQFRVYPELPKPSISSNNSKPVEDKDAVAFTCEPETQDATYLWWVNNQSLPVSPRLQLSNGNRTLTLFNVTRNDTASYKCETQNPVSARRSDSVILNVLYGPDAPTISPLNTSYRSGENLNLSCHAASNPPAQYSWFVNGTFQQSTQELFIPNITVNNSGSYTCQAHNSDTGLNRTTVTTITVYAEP
Procedure: (§1) If the protein domain was an Fc fusion, AB0411, AB0466, AB0264, or AB0621 were captured using an anti-human Fab antibody (Cytiva, #28958325) immobilized onto a CM5 chip. The various hCEACAM5 protein domains (N-term, A1-B1, A2, B2, A3, or B3) were titrated over the captured TriNKETs at 50 μL/min for 180 sec of association and 300 sec of dissociation. The assay was run at 25° C. in HBS-EP+ running buffer, pH 7.4. The surface of the CM5 chip was regenerated using […] glycine pH 2.1.

hCEACAM5 A2-B2 domain = biological target: T3, hCEACAM5 A2-B2 domain (human, UniProt P06731 323-500, limits assumed); test: SPR with hCEACAM5 domains
T3 sequence: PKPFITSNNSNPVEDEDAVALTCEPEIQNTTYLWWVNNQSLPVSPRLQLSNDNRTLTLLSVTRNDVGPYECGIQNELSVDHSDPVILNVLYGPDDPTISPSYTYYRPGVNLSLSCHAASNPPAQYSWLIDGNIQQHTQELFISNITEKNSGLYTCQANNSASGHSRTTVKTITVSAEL
Procedure: as §1
(§2) The various hCEACAM5 protein domains were titrated over the captured antibody at 50 μL/min for 180 sec of association and 300 sec of dissociation. The assay was run at 37° C. in HBS-EP+ running buffer, pH 7.4. The surface of the CM5 chip was regenerated using 3M MgCl₂.

hCEACAM5 A3-B3 domain = biological target: T4, hCEACAM5 A3-B3 domain (human, UniProt P06731 501-685, limits assumed); test: SPR with hCEACAM5 domains
T4 sequence: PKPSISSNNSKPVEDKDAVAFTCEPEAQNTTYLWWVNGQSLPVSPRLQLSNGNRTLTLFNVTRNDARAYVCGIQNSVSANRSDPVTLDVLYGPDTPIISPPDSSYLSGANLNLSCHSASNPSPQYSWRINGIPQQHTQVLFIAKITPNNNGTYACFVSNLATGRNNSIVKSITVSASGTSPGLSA
Procedure: as §1, §2

Cyno NKG2D-mFc = biological target: T5, Cyno NKG2D-mFc (cynomolgus monkey, UniProt P61252 78-216, limits assumed); test: SPR, NKG2D-mFc captured, 37C, pH 6.0
T5 construct: also called cynomolgus NKG2D fused to a mouse Fc
T5 sequence (looked up): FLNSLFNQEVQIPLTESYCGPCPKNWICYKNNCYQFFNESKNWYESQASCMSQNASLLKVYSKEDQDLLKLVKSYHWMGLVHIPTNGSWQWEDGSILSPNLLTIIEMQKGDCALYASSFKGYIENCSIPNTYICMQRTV
Procedure: (§3) Binding to NKG2D was assessed by SPR using a mouse Fc capture kit (Cytiva, #BR100838) immobilized onto a CM5 chip. Human and cynomolgus NKG2D fused to a mouse Fc were captured and AB0411, AB0466, or AB0621 was titrated from 600 nM.

[2] = biological target: T6, soluble mouse Fc-human NKG2D dimer (human, UniProt P26718 78-216, limits assumed); test: SPR, NKG2D-mFc captured, 37C, pH 6.0
T6 construct: also called NKG2D-mFc; human NKG2D fused to a mouse Fc
T6 sequence (looked up): T5 sequence (looked up) with N38D, I128T
Procedure: as §3

CEACAM5 Nterm IgV-His = biological target: T7, CEACAM5 Nterm IgV-His (human, UniProt P06731 35-144); test: SPR, hFc capt, 37C
T7 construct: also called N-term domain of hCEACAM5
T7 sequence: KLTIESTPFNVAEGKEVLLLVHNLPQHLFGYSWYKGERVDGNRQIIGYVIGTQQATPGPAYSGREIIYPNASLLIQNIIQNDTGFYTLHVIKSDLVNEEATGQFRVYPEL
Procedure: as §2

CEACAM5 N-A1-B1-His [3] = biological target: T2, CEACAM5 N-A1-B1-His; test: SPR, hFc capt, 37C
Procedure: as §2

EC50 (nM), NK lysis of HPAF-II (DELFIA) (human CEACAM5 on cells): 0.23 nM | EC50 (nM), NK lysis of LS-174T (DELFIA) (human CEACAM5 on cells): 0.46 nM | EC50 (nM), NK lysis of SK-CO-1 (DELFIA) (human CEACAM5 on cells): 9.07 nM | EC50 (nM), NK lysis of ZR-75-30 (DELFIA) (human CEACAM5 on cells): 0.8 nM | Kd (CEACAM5 N-A1-B1-His [1]): 2.1 nM | kon (CEACAM5 N-A1-B1-His [1]): 280000 M⁻¹ s⁻¹ | binding result (hCEACAM5 A2-B2 domain): no binding | binding result (hCEACAM5 A3-B3 domain): no binding | Kd (Cyno NKG2D-mFc): 420 nM | koff (Cyno NKG2D-mFc): 0.11 s⁻¹ | kon (Cyno NKG2D-mFc): 310000 M⁻¹ s⁻¹ | Kd [2]: 480 nM | koff [2]: 0.12 s⁻¹ | kon [2]: 240000 M⁻¹ s⁻¹ | Kd (CEACAM5 Nterm IgV-His): 1.4 nM | kon (CEACAM5 Nterm IgV-His): 1.1e+06 M⁻¹ s⁻¹ | Kd (CEACAM5 N-A1-B1-His [3]): 5.5 nM | kon (CEACAM5 N-A1-B1-His [3]): 240000 M⁻¹ s⁻¹
B1: AB0466 F3' CEACAM5 TriNKET (bispecific antibody, human IgG1, kappa)
chain: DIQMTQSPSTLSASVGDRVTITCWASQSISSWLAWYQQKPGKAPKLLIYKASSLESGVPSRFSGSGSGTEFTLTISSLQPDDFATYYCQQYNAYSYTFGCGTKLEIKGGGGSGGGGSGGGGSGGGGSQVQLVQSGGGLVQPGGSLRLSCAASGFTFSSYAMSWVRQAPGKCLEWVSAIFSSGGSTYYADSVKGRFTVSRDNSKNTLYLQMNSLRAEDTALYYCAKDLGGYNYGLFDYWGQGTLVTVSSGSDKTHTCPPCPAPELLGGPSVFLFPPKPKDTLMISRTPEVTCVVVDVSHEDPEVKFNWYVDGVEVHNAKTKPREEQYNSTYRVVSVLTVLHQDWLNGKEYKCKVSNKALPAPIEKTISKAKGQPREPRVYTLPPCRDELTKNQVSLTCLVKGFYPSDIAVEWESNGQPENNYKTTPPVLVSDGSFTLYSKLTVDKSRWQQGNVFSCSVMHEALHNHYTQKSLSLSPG
heavy: EVQLVESGGGLVKPGGSLRLSCAASGFTFSSYSMNWVRQAPGKGLEWVSSISSSSSYIYYADSVKGRFTISRDNAKNSLYLQMNSLRAEDTAVYYCARGAPIGAAAGWFDPWGQGTLVTVSSASTKGPSVFPLAPSSKSTSGGTAALGCLVKDYFPEPVTVSWNSGALTSGVHTFPAVLQSSGLYSLSSVVTVPSSSLGTQTYICNVNHKPSNTKVDKKVEPKSCDKTHTCPPCPAPELLGGPSVFLFPPKPKDTLMISRTPEVTCVVVDVSHEDPEVKFNWYVDGVEVHNAKTKPREEQYNSTYRVVSVLTVLHQDWLNGKEYKCKVSNKALPAPIEKTISKAKGQPREPQVCTLPPSRDELTENQVSLTCLVKGFYPSDIAVEWESNGQPENNYKTTPPVLDSDGSFFLYSWLTVDKSRWQQGNVFSCSVMHEALHNHYTQKSLSLSPG
light: DIQMTQSPSSVSASVGDRVTITCRASQGISSWLAWYQQKPGKAPKLLIYAASSLQSGVPSRFSGSGSGTDFTLTISSLQPEDFATYYCQQGVSFPRTFGGGTKVEIKRTVAAPSVFIFPPSDEQLKSGTASVVCLLNNFYPREAKVQWKVDNALQSGNSQESVTEQDSKDSTYSLSSTLTLSKADYEKHKVYACEVTHQGLSSPVTKSFNRGEC
Max Killing (%), HPAF-II (human CEACAM5 on cells): 16.5% | Max Killing (%), LS-174T (human CEACAM5 on cells): 20.5% | Max Killing (%), SK-CO-1 (human CEACAM5 on cells): 75.1% | Max Killing (%), ZR-75-30 (human CEACAM5 on cells): 21.4%

EC50 (nM), NK lysis of HPAF-II (DELFIA) (human CEACAM5 on cells): 0.72 nM | EC50 (nM), NK lysis of LS-174T (DELFIA) (human CEACAM5 on cells): 1.87 nM | EC50 (nM), NK lysis of SK-CO-1 (DELFIA) (human CEACAM5 on cells): 1.02 nM | EC50 (nM), NK lysis of ZR-75-30 (DELFIA) (human CEACAM5 on cells): 1.58 nM | Kd (CEACAM5 N-A1-B1-His [1]): 1.8 nM | kon (CEACAM5 N-A1-B1-His [1]): 350000 M⁻¹ s⁻¹ | binding result (hCEACAM5 A2-B2 domain): no binding | binding result (hCEACAM5 A3-B3 domain): no binding | Kd (Cyno NKG2D-mFc): 300 nM | koff (Cyno NKG2D-mFc): 0.045 s⁻¹ | kon (Cyno NKG2D-mFc): 150000 M⁻¹ s⁻¹ | Kd [2]: 240 nM | koff [2]: 0.056 s⁻¹ | kon [2]: 240000 M⁻¹ s⁻¹ | binding result (CEACAM5 Nterm IgV-His): no binding | Kd (CEACAM5 N-A1-B1-His [3]): 11 nM | kon (CEACAM5 N-A1-B1-His [3]): 150000 M⁻¹ s⁻¹
B2: AB0621 F3' CEACAM5 TriNKET (bispecific antibody, human IgG1, kappa)
chain: DIVMTQSPDSLAVSLGERATINCKSSHSLLYGNFQNNYLAWYQQKPGQPPKLLIYWASTRESGVPDRFSGSGSGTDFTLTISSLQAEDVAVYYCQQYYSYPYTFGCGTKLEIKGGGGSGGGGSGGGGSGGGGSQVQLVQSGAEVKKPGASVKVSCKASGYTFTAYTIHWVRQAPGQCLEWMGYINPSSGYTEYNQKFKDRTTLTADTSISTAYMELSRLRSDDTAVYYCTREGGLLWFDYWGQGTLVTVSSGSDKTHTCPPCPAPELLGGPSVFLFPPKPKDTLMISRTPEVTCVVVDVSHEDPEVKFNWYVDGVEVHNAKTKPREEQYNSTYRVVSVLTVLHQDWLNGKEYKCKVSNKALPAPIEKTISKAKGQPREPRVYTLPPCRDELTKNQVSLTCLVKGFYPSDIAVEWESNGQPENNYKTTPPVLVSDGSFTLYSKLTVDKSRWQQGNVFSCSVMHEALHNHYTQKSLSLSPG
heavy: B1 heavy
light: B1 light
Max Killing (%), HPAF-II (human CEACAM5 on cells): 29.8% | Max Killing (%), LS-174T (human CEACAM5 on cells): 42.6% | Max Killing (%), SK-CO-1 (human CEACAM5 on cells): 80.9% | Max Killing (%), ZR-75-30 (human CEACAM5 on cells): 29.8%
